Assay [1] addresses HLA-B*07:02. The assay can be described thus: IEDB peptide-MHC binding, purified MHC/competitive/radioactivity; filed as Kd, often an IC50 or EC50 that approximates it; ≥ and ≤ were set here for values at or beyond the usual limits of such assays.
The target of assay [2] is HLA-B*35:01. The assay is described as above.
Assay [3] deals with HLA-B*51:01. The description is as above.
Assay [4] deals with HLA-B*53:01. The assay is described as above.
In assay [5] the target is HLA-B*54:01. Described as above.
The target of assay [6] is HLA-A*01:01. As to the kind of experiment: IEDB peptide-MHC binding, purified MHC/competitive/fluorescence; filed as Kd, often an IC50 or EC50 that approximates it; ≥ and ≤ were set here for values at or beyond the usual limits of such assays.
Assay [7] has as its target HLA-A*03:01. The description is as above. The settings on record: source organism: Yersinia pestis Nepal516.
For assay [8], the target named is HLA-B*35:01. The assay is described as above.
The target of assay [9] is HLA-A*24:02. The assay can be described thus: IEDB peptide-MHC binding, purified MHC/competitive/fluorescence; ≥ and ≤ were set here for values at or beyond the usual limits of such assays.
Assay [10] addresses HLA-B*15:01. Described as above.
Assay [11] deals with HLA-A*03:01. The assay is described as above.
The target of assay [12] is HLA-A*11:01. The assay is described as above.
For assay [13], the target named is HLA-B*18:01. The assay can be described thus: IEDB peptide-MHC binding, purified MHC/direct/fluorescence; filed as Kd, often an IC50 or EC50 that approximates it; ≥ and ≤ were set here for values at or beyond the usual limits of such assays. The settings on record: source organism: Yellow fever virus 17D.
Assay [14] has as its target HLA-B*15:42. As to the kind of experiment: IEDB peptide-MHC binding, purified MHC/competitive/fluorescence; filed as Kd, often an IC50 or EC50 that approximates it; ≥ and ≤ were set here for values at or beyond the usual limits of such assays. The settings on record: source organism: Yellow fever virus.
For assay [15], the target named is HLA-B*45:06. The assay is described as above. The settings on record: source organism: Yellow fever virus.
Assay [16] concerns the target HLA-B*83:01. The assay is described as above. The settings on record: source organism: Yellow fever virus.
In assay [17] the target is HLA-C*05:01. As to the kind of experiment: IEDB peptide-MHC binding, purified MHC/direct/fluorescence; filed as Kd, often an IC50 or EC50 that approximates it; ≥ and ≤ were set here for values at or beyond the usual limits of such assays. The settings on record: source organism: Pisum sativum.
The target in assay [18] is HLA-A*02:11. The description is as above. The settings on record: source organism: Dengue virus 2 Thailand/16681/84.
The target in assay [19] is HLA-A*02:12. The assay is described as above. The settings on record: source organism: Dengue virus 2 Thailand/16681/84.
The target in assay [20] is HLA-A*23:01. The assay is described as above. The settings on record: source organism: Vibrio cholerae.
The target of assay [21] is HLA-A*24:03. The assay is described as above. The settings on record: source organism: Vibrio cholerae.
For assay [22], the target named is HLA-B*07:02. Described as above. The settings on record: source organism: Mycobacterium tuberculosis C.
Assay [23] has as its target HLA-B*51:01. The assay can be described thus: IEDB peptide-MHC binding, purified MHC/competitive/fluorescence; filed as Kd, often an IC50 or EC50 that approximates it; ≥ and ≤ were set here for values at or beyond the usual limits of such assays. The settings on record: source organism: Mycobacterium tuberculosis H37Ra.
In assay [24] the target is HLA-A*02:01. As to the kind of experiment: IEDB peptide-MHC binding, purified MHC/competitive/fluorescence; ≥ and ≤ were set here for values at or beyond the usual limits of such assays. The settings on record: source organism: Sudan ebolavirus.
Where [25] appears, read: source organism: Mammarenavirus choriomeningitidis.
[26] abbreviates: source organism: Lymphocytic choriomeningitis virus (strain Armstrong).
Setting [27] is: source organism: Yersinia pestis Nepal516.
Setting [28] is: source organism: Vaccinia virus WR.
[29] abbreviates: source organism: Zaire ebolavirus.
[30] abbreviates: source organism: Sudan ebolavirus.
[31] abbreviates: source organism: Vaccinia virus.
Setting [32] is: source organism: SARS coronavirus Tor2.

Usually Kd stands for the equilibrium constant for the complex coming apart. Regarding MPSEDGAEDL, the Kd was 1860 nM in assay [1] (setting [25]); 148 nM in [2] (setting [25]); no less than 69600 nM in [3] (setting [25]); 903 nM in assay [4] (setting [25]); no less than 69900 nM in [5] (setting [25]).
Turning to GPMMCPFLF, the Kd in assay [1] (setting [26]) is 143 nM; in assay [2] (setting [26]), 767 nM; in [3] (setting [26]), 13500 nM; in assay [4] (setting [26]), 173 nM; in assay [5] (setting [26]) it was 764 nM.
MVASQLARY: the Kd is 1230 nM in [6] (setting [27]), 908 nM in assay [7] and 0.9 nM in assay [8] (setting [27]).
What is called IC50 is the concentration that inhibits the measured activity by half. A higher IC50 goes with a need for much substance. Regarding VDYGLVSKF, the IC50 was 3510 nM in assay [9] (setting [28]) and no less than 278000 nM in [10] (setting [28]).
As for SFASLFLPK, the IC50 in assay [11] (setting [29]) was 677 nM; in assay [12] (setting [29]), 81.5 nM; in [9] (setting [29]), no less than 114000 nM.
For the sequence LPIFSDAAL, the Kd was 22.1 nM in assay [1] (setting [25]); 13.3 nM in assay [2] (setting [25]); no less than 64100 nM in assay [3] (setting [25]); 64.1 nM in [4] (setting [25]); 1000 nM in assay [5] (setting [25]).
Consider LEDGIYGIF, for which the dissociation constant Kd in [13] was 118 nM; in assay [14], no less than 5000 nM; in assay [15] it was no less than 5000 nM; in [16], no less than 5000 nM.
In the case of YKACHNSEL, the Kd in [17] is no less than 20000 nM.
As to SMVNGVVRL, the Kd was no more than 1 nM in assay [18] and 13 nM in assay [19].
As for RYQAQQVEW, the Kd in assay [20] is 4.6 nM; in assay [21], 1.6 nM.
PKETFLQSP had an IC50 in assay [11] (setting [30]) of no less than 174000 nM.
Take YPITGVKSL: the Kd in assay [22] was 73.9 nM; in assay [8] (source organism: Mycobacterium tuberculosis H37Ra), 0.2 nM; in [23], no less than 20000 nM.
On to GKVFAPKQK, for which the values for the IC50 in assay [11] (setting [31]), in assay [12] (setting [31]) and in assay [9] (setting [31]) were no less than 155000 nM, no less than 119000 nM and 39500 nM, respectively.
Turning to QLSNTTGRL, the IC50 was 4660 nM in assay [24], 30300 nM in assay [9] (setting [30]) and 21800 nM in [10] (setting [30]).
For VPNITISSNA, the Kd is 4200 nM in assay [1] (setting [28]); no less than 69900 nM in assay [2] (setting [28]); no less than 69600 nM in [3] (setting [28]); no less than 69900 nM in [4] (setting [28]); 16.6 nM in assay [5] (setting [28]).
GPQSNQRSA: the Kd in [1] (setting [32]) is 365 nM; in assay [2] (setting [32]) it was 9790 nM; in assay [3] (setting [32]) it was 8090 nM; in [4] (setting [32]) it was no less than 78200 nM; in [5] (setting [32]), 5920 nM.
In assay [6] (source organism: Influenza A virus (A/Fort Monmouth/1/1947-mouse adapted(H1N1))), FTSFFYRY gave a Kd of 1280 nM.
With EAIVNAQPK, the IC50 in assay [12] (setting [29]) was determined as 34900 nM; in assay [9] (setting [29]), 28400 nM.

Values taken from the Immune Epitope Database (IEDB).
